# Tested on: K4 kissing-loop RNA reporter
# Experiment: apparent KD of K4 kissing-loop reporter; higher = weaker reporter binding
# Conditions: Eterna round: R107
# Protocol: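 RNA-MaP round R107: designed RNA switches with theophylline, tryptophan, arginine or FMN aptamers are transcribed on-chip within common flanks. They are titrated with a labelled K4 kissing-loop RNA reporter in RNA-MaP buffer (100 mM Tris pH 7.5, 80 mM KCl, 4 mM MgCl2), without ligand or with the indicated ligand. Median apparent KD per design.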
# [1] = input ligand: theophylline 20 uM
# [2] = input ligand: tryptophan 2.4 mM
# 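Also: bound reporter read as fluorescence of individual clusters on recovered sequencing chips by microscopy, with normalized cluster intensities fitted with a binding model.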
Sequence,apparent KD of K4 kissing-loop reporter (input ligand: FMN 200 uM),apparent KD of K4 kissing-loop reporter (input ligand: arginine 13.2 mM),apparent KD of K4 kissing-loop reporter (input ligand: none),apparent KD of K4 kissing-loop reporter [1],apparent KD of K4 kissing-loop reporter [2]
CAAAACGAGUGAUGUUCGGACAACAACGUUAAGGAUAUACUUCUCUGUAGAAGGUAACAGUAUUUAUAUUUCAUCAACGAAAAUG [theeternabot_exclusion_KL_FMN_A_12],213 nM,183 nM,280 nM,248 nM,181 nM
UGUGUUGUUUUGAUGUUUGGUGUUUGUUGGCAGGAUAUCGUAGAGGCGAGAAGGGCUUUGUUGCGGUAUGAGUGAUGUUUGUAGG [szzrmullin],349 nM,174 nM,295 nM,244 nM,255 nM
AAAAUAAAUAGCAGUCAUGGAGUGAUGUUCCGAGGACCGGUACGGCCGCCACUCGACCAUCAUAAGAUGGAAUGGCGAGACUGCA [#SwitchBubble 22 #K4Early],252 nM,288 nM,249 nM,362 nM,520 nM
UGCUGUCAAUAAGAUACCAGUUGGACUGAGUGAUGUUCAUCCAUUAUAUCUAUUCUGCUUAACCCUUGGCAGCUUGAUGACGUUU [theeternabot_exclusion_KL_Theo_B_6],174 nM,149 nM,180 nM,191 nM,182 nM
UUUGGAAGCGGUGUUGAUUAGGGAGCGGAAGGAGCGCCGAUUAUGGCAGGUAGGUCGCCGGAAUGUAGUGAUGUUGCAUAGAGGG [ExArgA.W],209 nM,234 nM,202 nM,263 nM,83.9 nM
GUAUCGCUAGGAGGAUAUUCCAUUUUACAUAGAAAUGGCUAUGCGGAGUGAUGUUCCGAUUUACGGGAAGAAGGCCUAGUGAUAC [FMN B 21],137 nM,119 nM,131 nM,115 nM,121 nM
UUUCUACCGGGAAGGAGCGUGAAUGAUAAUGGAUAUAGUGAUGUUAUAUAUACGAACGAAUCGCAGGUAGGUCGCCCGGAUGACU [SSArgB.T],586 nM,503 nM,724 nM,550 nM,486 nM
GUUACGCAUGGAAGGAGCGCACUCCGAUUGGUCGACACAGUGAUGUUGUGGUUCGUUCGAAUGCAGGUAGGUCGCCAUGUGUAAC [Ex Arginine B K4 18],165 nM,143 nM,175 nM,145 nM,150 nM
GCGCGUCAUGUCAGCGGUGACACUGUCGAUACCAGCGCCGGAAGGCGCCCUUGGCAGCGACGUGCUGGAGUGAUGUUCCAGCGUG [#2 Exclusion - Theophylline A Attempt #26 (HarryS)],197 nM,158 nM,178 nM,206 nM,157 nM
AAUAGGGAGUGAUGUUCCCUCACUUAUGAUACCAGUGCCAUCGGACACCCUUGGCAGCAUACGGGCAGUGAUGUUGUUCUUGGAA [Exclusion Theophylline A GF 25],129 nM,148 nM,156 nM,155 nM,119 nM
AGGAUGUAGUGAUGUUAUAUAAAAGGUAAACGAGGACCGGUACGGCCGCCACUCGAAGCGGCUGCUAAGAGGGAAAGAAGAGGAA [ExTryptoA.E],496 nM,464 nM,570 nM,684 nM,371 nM
AACUGUCAAGGACAACAUUACUGAGGUGAUACCAGCAUCGAAAGAUGCCCUUGGCAGCGCCAACUUGCAGUGAUGUUGCAAGUAA [BrourdMod 1 - Jieux - Exclusion - Theophylline A],169 nM,141 nM,157 nM,159 nM,164 nM
GAUUCAGUGAUGUUGGAAGGCGAGCGGGAUACCAGCCAAGACUCAGGCCCUUGGCAGCCCACAUAUCCCACGUAGAUAGUAGCUC [Same State - Theophylline A (Freestyle 13)],230 nM,104 nM,147 nM,134 nM,142 nM
UGACGUUUGGGAAGGAGCGGAAUGUAAUACGGAACGCGUGGAGAUGCAGUGAUGUUGCAGAUCCAGGUAGGUCGCCCAAGGGACG [Zainat],91.4 nM,72 nM,76.2 nM,84.9 nM,94.2 nM
AUUAAUUUCAGAGGAUAUGCUUUAUUAUUAUUUUUAAAUAAUAUAAGCAGUGAUGUUGCUUUUUAUGCAGAAGGCUGAUUUAUAA [JR_SSFMNB_Sub016],137 nM,397 nM,383 nM,384 nM,360 nM
AAGUGUGUGGCGGCCGCCACUAGAAUCCAGUGAUGUUGGAGUUAUCAGAUAAAUGAUAAUCAACAUAGGACCGGGCCAUAUAGAA [Same State - Tryptophan B (Freestyle 5)],703 nM,689 nM,455 nM,630 nM,425 nM
CGAGUCCUGAGGAGUGAUGUUCCUCGGCCACGAGGACCGGUACGGCCGCCACUCGUUACUCGGGCUUAGUAGCUAGCACUAAGCU [Quedmaon],265 nM,171 nM,186 nM,232 nM,101 nM
UGAUAGGACAGAAGGAGCGGUAGUGAUGUUACCAAAAGGCUAAGGUGUCAAAAGACACCCUACCAGGUAGGUCGCUGUCCUAUCU,131 nM,131 nM,137 nM,121 nM,103 nM
GGUUCUGGUUUGGAGUGAUGUUCUAAGUGGCAGGAUAUGGAGAGAUCCAGAAGGGCCGUUUGUAUCUUUUUUGUGUGGUUUUUUU [Last Minute #2],132 nM,195 nM,231 nM,206 nM,160 nM
UGGGUGUAGUGAUGUUAUAUAGAGAAUGAUACCAGCUUAGAGAGGAGCCCUUGGCAGCGUAGACGAGUAUCAUUGGAGGAGGAGG [#22 K4 Theophylline A Exclusion],714 nM,924 nM,965 nM,724 nM,647 nM
CCUAUCUCAUACGAUACCAGUCAAAUAAAUUAUAACGAGUGAUGUUCGAAAUGCCAUCACGACCCUUGGCAGCGUAUGGGAUAGG [Ex Theophylline B K4 1],304 nM,123 nM,212 nM,186 nM,125 nM
UUGUUUAACUGAAGGAGCGGCAAUUGAUACGUAGAUAUAGUGAUGUUAUAUAAGAUAGAGAGCCAGGUAGGUCGCAGAGGUGUUU [ExArgB.R],231 nM,227 nM,246 nM,219 nM,190 nM

Sequence,apparent KD of K4 kissing-loop reporter (input ligand: FMN 200 uM),apparent KD of K4 kissing-loop reporter (input ligand: arginine 13.2 mM),apparent KD of K4 kissing-loop reporter (input ligand: none),apparent KD of K4 kissing-loop reporter [1],apparent KD of K4 kissing-loop reporter [2]
AAAUAGAUCAGUCAUCCAGUGAUGUUGGAAGGAGCGUGCGAAAGCACAGGUAGGUCGCCAAAAUAAAAGUGGCUGAUCAAAAUAA,629 nM,374 nM,302 nM,594 nM,302 nM
UGUACCGAGUCAGGAUAUGGCGUCGAAAGACGAAUCGUAGUGAUGUUACGGAUCUGCGAAAGCAGUCCAGAAGGGACUUGGUACU [FmnBS 26 G37+C49],125 nM,172 nM,163 nM,155 nM,182 nM
CUCCAACUUGAUGAUACCAGAGAGGAGGAAGUGAUGUUGACUCCGGCUACAUACUGGCGACUCCCUUGGCAGCAUUACGUCAUCC [theeternabot_sameState_KL_Theo_B_3],389 nM,265 nM,318 nM,417 nM,353 nM
AUUAUAUAGGCGGCCGCCACUAGUGAUGUUAGUGACUAUAUGAAAACAUAUAGAAUAAAAUAAUAUAGGACCGGGCCAUAAUAUU [AstrosExTryB#4],498 nM,392 nM,423 nM,425 nM,471 nM
GGAUAGGACAGAGGAUAUGGACAGUCUACAAAGUAGGCUGAAAAUCCUUGAAUGGAAGUGAUGUUUCCAGAAGGCUGUCCUAUCG [FmnBX 20 - #SwitchBubble #StaticStem #Palindromic],558 nM,145 nM,165 nM,164 nM,150 nM
ACCUACCAUUAGUGAUGUUAAUGGACGGAAGGAGCGCGGAUAUCUGCAGGUAGGUCGCCGAAGGCUAGACAUUGUCUAGCCAUUA [AK1 SS Arginine A],149 nM,113 nM,131 nM,107 nM,120 nM
GCCAGUGAUGUUGGCGAACCAACGCAUGCAGAGGAUAUUCGUUCUGGAAGAAGGCUGCAGCGUUAUCAAACGCAGUGAUGUUGCG [Same State FMN A GF 26],179 nM,134 nM,150 nM,165 nM,129 nM
UGACAUUGCUCAGAUACCAGACUUGAGGAACACCCAAGUGCCAAAUAAACGUACAUAAAAGUCCCUUGGCAGCUGAGCAAUGUCU [TheoBX 11],66 nM,34.1 nM,62.5 nM,104 nM,45.3 nM
AACUCUCACUGGAGUGAUGUUCUGGAAAACCGAGGACCGGUACGGCCGCCACUCGGAAAUGAGAGAGUCCUACGAAAAGUAGGAC [Omei inspired 1],191 nM,213 nM,217 nM,255 nM,139 nM
AAAUACAUUUUAUUAUAUAACUUUUCAGAAGGAGCGUGGAAGUUCACAGGUAGGUCGCUGAAUAUUGGACUAGUGAUGUUAGUUA [JR_Nu_SSArginiA_Sub021],222 nM,217 nM,253 nM,225 nM,179 nM
UAUUUAGUGACGGCCGCCACUAUGGUGAUUUAUUUGUUUGAGUGAUGUUUUGAUGUUUGAUUUUGUAGGACCGGGUUAUGUGUUG [yyycmullin],891 nM,688 nM,818 nM,752 nM,595 nM
CCGAUACAUUAUUCUACGGCCGAGAGCGAUACCAGCCAAAUUUAUGGCCCUUGGCAGCGCAGAUGCAGUGAUGUUGCAUACAUAC [Same State Theophylline A GF 18],102 nM,158 nM,95.6 nM,166 nM,83.2 nM
UCGUCUGUGUGAGGAUAUCCAAGCGAGCUGCGUACAGGUGCGGCGUUUGGAGUGAUGUUCCAGGCAGGAGAAGGCGCACGGGCUU [Esored],191 nM,247 nM,284 nM,285 nM,251 nM
CGAGUCCUGAGGAGUGAUGUUCCUCGGCCACGAGGACCGGUACGGCCGCCACUCGUUACUCGGGCUUAGCAGCAAGCACUAAGCU [Acesote],348 nM,317 nM,334 nM,302 nM,127 nM
AAAAUAGAUCAGUGAUGUUGGUGUCUGGAUACCAGCGAUAAUAGUCGCCCUUGGCAGCCAUGGACGUACAAAAUAAGUACGUCCU [MatMod 20 - Jieux - Same State - Theophylline A],487 nM,239 nM,369 nM,285 nM,347 nM
UGAUUUAACUGAAGGAGCGGCAAGAGAGAAGGAAAUAUAGUGAUGUUAUAUAAGAGAGAGAGCCAGGUAGGUCGCAGAGGGAGGA [ExArgB.E],126 nM,126 nM,173 nM,178 nM,137 nM
UAGUUGCCGGUUUGUAGGCUUCGGCAGUGGGAGGAUAUGUUGACCGACAGAAGGCCCAGUGAUGUUGGGCGAUUGGCGGUGAGAU [Antebear],50 nM,78.3 nM,145 nM,,123 nM
AGUGCACUGUCAGGAUAUAUACAGUGAUGUUGUGUAUGUCAGCAAGUCAAAGACUUGCUAUUCUGUGUAGAAGGGACUGUGUACA [Omei KL FMN B Exc A v1],607 nM,203 nM,230 nM,207 nM,221 nM
AUUCGUCUCUGAGGAUAUCAGAGGAGAGUGAUGUUCUCCCAUAGCCCAGUGAUGUUGGAUGCUAUCUGAGAAGGCAGUGGGCGAA [Same State FMN B GF 14],142 nM,203 nM,213 nM,226 nM,186 nM
UGACAUUGCUCAGAUACCAGACUUGAGGAUCACCCAAGUGCCAAAUAAACGUACAUAAAAGUCCCUUGGCAGCUGAGCAAUGUCU [TheoBX 11],72.9 nM,46.3 nM,41.3 nM,99 nM,33.4 nM
CUGCCGUUUACAGAUACCAGACUAAUAACGGCAGCACAGAAUGUGAGUGAUGUUCGCAUAGUCCCUUGGCAGCUGUAUAACAGUA [Theo B Ex t3],219 nM,199 nM,227 nM,287 nM,191 nM
